We go through three molecules from US20050260565A1 (ICOS, published 2005).

Assay [1] has as its target T1, FLAG-tagged 88C receptor (human, UniProt P51681 1-352).
T1 sequence: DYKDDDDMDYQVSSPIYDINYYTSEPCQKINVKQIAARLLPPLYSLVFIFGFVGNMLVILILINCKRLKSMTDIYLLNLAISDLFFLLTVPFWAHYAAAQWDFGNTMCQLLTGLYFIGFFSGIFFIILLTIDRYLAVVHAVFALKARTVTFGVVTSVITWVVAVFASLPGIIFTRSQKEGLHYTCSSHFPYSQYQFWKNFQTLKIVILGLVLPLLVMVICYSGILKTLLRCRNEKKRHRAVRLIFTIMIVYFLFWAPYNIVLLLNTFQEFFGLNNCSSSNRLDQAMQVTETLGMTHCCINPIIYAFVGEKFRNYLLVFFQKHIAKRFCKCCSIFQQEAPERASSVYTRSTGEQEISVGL
The assay can be described thus: cell-based or functional assay.

Assay [2] has as its target T1, FLAG-tagged 88C receptor. The assay can be described thus: competition of the unlabeled ligand with 1.5 nM 125I-MIP-1β on HEK-293 cells expressing FLAG-tagged 88C. The text has this:
(§1) Another assay for receptor interaction with chemokines was a modification of the binding assay described by Ernst et al., J. Immunol. 152:3541-3549 (1994). MIP-1β as labeled using the Bolton and Hunter reagent (di-iodide, NEN, Wilmington, Del.), according to the manufacturer's instructions. Unconjugated iodide was separated from labeled protein by elution using a PD-10 column (Pharmacia) equilibrated with PBS and BSA (1% w/v). The specific activity was typically 2200 Ci/mmole. Equilibrium binding was performed by adding ¹²⁵I-labeled ligand with or without a 100-fold excess of unlabeled ligand, to 5×10⁵ HEK-293 cells transfected with 88C tagged with the FLAG epitope in polypropylene tubes in a total volume of 300 μl (50 mM HEPES pH 7.4, 1 mM CaCl₂, MgCl₂, 0.5% BSA) and incubating for 90 minutes at 27° C. with shaking at 150 rpm. The cells were collected, using a Skatron cell harvester (Skatron Instruments Inc., Sterling, Va.), on glass fiber filters presoaked in 0.3% polyethyleneimine and 0.2% BSA. After washing, the filters were removed and bound ligand was quantitated by counting gamma emissions. Ligand binding by competition with unlabeled ligand was determined by incubation of 5×10⁵ transfected cells (as above) with 1.5 nM of radiolabeled ligand and the indicated concentrations of unlabeled ligand. The samples were collected, washed and counted as above. The data was analyzed using the curve-fitting program Prism (GraphPad Inc., San Diego, Calif.) and the iterative non-linear regression program, LIGAND (PM220).
In equilibrium binding assays, 88C receptor bound radiolabeled MIP-1β in a specific and saturable manner.

Assay [3] concerns the target T1, FLAG-tagged 88C receptor. The assay can be described thus: equilibrium binding of 125I-MIP-1β to HEK-293 cells expressing FLAG-tagged 88C, Scatchard analysis.
Description: as §1, with “The cells were collected, using a Skatron cell harvester (Skatron Instruments Inc., Sterling, Va.), on glass fiber filters presoaked in 0.3% polyethyleneimine and 0.2% BSA.” left out, “(PM220). […]” for “(PM220).”

B1: RANTES (Regulated on Activation, Normal T Expressed and Secreted) (ligand, UniProt P13501 24-91, looked up)
chain: SPYSSDTTPCCFAYIARPLPRAHIKEYFYTSGKCSNPAVVFVTRKNRQVCANPEKKWVREYINSLEMS
For orientation: IC50 means the concentration that gives 50% inhibition. A low value points to greater potency in that assay. For B1, the “EC50 of inositol phosphate formation (dose-response curves)” value (shortened to “EC50 of inositol phosphate formation”) with FLAG-tagged 88C receptor [1] was 1 nM. In the assay with FLAG-tagged 88C receptor [2], this molecule came in with an IC50 of 6.9 nM.

B2: MIP-1α (ligand, UniProt P10147 24-92, looked up)
chain: SLAADTPTACCFSYTSRQIPQNFIADYFETSSQCSKPGVIFLTKRSRQVCADPSEEWVQKYVSDLELSA
As to B2, in the assay with FLAG-tagged 88C receptor [1], the “EC50 of inositol phosphate formation” value was determined as 22 nM. In the assay with FLAG-tagged 88C receptor [2], this molecule registered an IC50 of 7.4 nM.

B3: MIP-1β (ligand, UniProt P13236 24-92, looked up)
chain: APMGSDPPTACCFSYTARKLPRNFVVDYYETSSLCSQPAVVFQTKRSKQVCADPSESWVQEYVYDLELN
modifications: ends and bridges not checked; also: 125I label (Bolton and Hunter reagent) where used as radiolabeled ligand
Usually Kd stands for the constant that tells how readily two partners part at equilibrium. A lower Kd goes with a tighter complex. As to B3, in the assay with FLAG-tagged 88C receptor [1], the “EC50 of inositol phosphate formation” value worked out at 6 nM. Besides, in the assay with FLAG-tagged 88C receptor [2], the IC50 came out at 7.4 nM. Besides, in the assay with FLAG-tagged 88C receptor [3], the Kd turned out to be 1.6 nM.
